Source: a protein production outcome set (Wang et al. 2014)

Experiment: label from the status in PepcDB records

**Q.** For “MLLSHAFGLFTHPEDEWVSIKKEHEHPTRLYVAYVVVLAAIAPICAYISTAHFGWSIGSERLIKLTEISALQMSVLTYLAMLVGVFALGYAINWMAKTYGAKEEHVPSNGIALAAYSCTPLFLAGFALLYPVPWFNAVVFLAAACYGAWLMYDGLPIVMGIEKERAVMYGGALLTVALVILVSTRVGSVILWNLGLGPVFVSG”, which protein production is on record?
**A.** failed

**Q.** For “MQWANLALFLTEAIVYFSVMTAFLHYRHILGIGVFLTALGVMHFLETYLAAVFYVQLPFGVASPGSSILFAGKLMMILMLYMREDAAVVRQPIYGLFLGNILTVIMAQIIRFHQTVAIVPGQSVSTGFLDEMGILMVWGTSLLYIDAIAIILFYEKLGRYLQRHIVLRFAICGVVILSFDQAGFYGALRLLFNAPVDVFYDGWKAKMAAVGIYSLLFATYLWLTAAKGRFLTRRSVADVFNDLTFRERYEELLSRSGRDMLTGVSDRARMELDAPSLVVECLEKRRPVSVLIVDIDHFKTVNDTFGHLQGDEILREFAAVLKRAVQPLGHLYRFGGEEFVALLPAMTHETALAFSASLRVAVLAELQRPDGSPLTVSIGVATAFEDGQLFRALLSEADAWLYAAKNNGRDQVHGRHGMWVG”, which protein production is on record?
**A.** failed

**Q.** With “MPEQQLADLSQEVAASGDSIAFAADFAVIVVVATVIGLLARQLGQPTIVAYILTGVVLGPVALDVVTQEGLVDVMAELGLGFLLFLLGLKMRFDDIREILAPITNVAIGQTVLQTALAFLVALLLGFATDEILVIALATVFGATPVIVKVLTDKDEITTLPGKIDVGVLIVQDIYLVVVLALFGAEQLGDAGEIATTLGVIFVMMSFIGLFSLASSRYLLPHLFERIANNKDVFLIVAIAWAFLFIAIAEGFDLSVEVGAFLAGLSLAQLPYSKELQDRITPITDFFILVFFASIGLQIESVGSLLTHWQEALIASVVLMVGNFWIMFYLIDREGFGPETSFLGSINMVQVSEFSLVVGALAFQQGYIGADVLGYLTLMALLTMTASTYIILYNHAIYERVAPWIRRISSGDGIDEGLPEYENHAVAIGYDEVTEKALPVLDEAFEEVVIIDRNTEHIAEIREAGEYESIFGDFRHKEVRKASNLKEAEFVLSSSVQREINEALLQETADDTPVFVEAERIADAHRLYEAGASYVVMPPHLAAEKLGEYLELYLTDQSVFHTRIQDDIEQIRRRASQATTRRRMASDTGVDLRTSGGDDD” as the sequence, how does the protein production read?
**A.** failed

**Q.** Which protein production does the source give for “IHYAGKILQERLVNPPSLMELAREIGINDHKLKVGFRQVFKTTVFGYLHDQRIERSRQLLESGEMTVTGAASAVGFANRGHFAAAFRRKFGINPSLYARQRKL” here?
**A.** failed

**Q.** With “MGQKAKAQAPTTHPRPHTLSSQVAPALPRRPRHAAPESLRQARGEVMKAHLITYGCQMNEYDTHLVQSQLVSFGADIVESPDEADFVLVNTCAVRGKPVDKVRSLLGDLRKQKAQRSLVVGMMGCLAQLEEGQQIARKFEVDVLLGPGSLLDIGAALESNERFWGLQFKDELHDHIPPPPSGKLQAHLTIMRGCDHHCTYCIVPTTRGPQVSRHPDDILRELDMQLAAGVREVTLLGQNVNAYGVDQGAKLKGYPSFADLLRMVGASGIERVKFTTSHPMNFTEDVAAAIGETPAICEFVHLPVQSGSDRVLRRMAREYNREKYLTHIAQIKKHIPDVVLATDIIVGFPGETEEDFQDTLSLYDEVGYDSAYMFIYSPRPGTPSYKHFQDLPRELKTERLQRLIARQKDWSARKNAQKVGTVQQVLLRGDAHDAGFLEGHTRGNHPTVVPKAIGADGAGVYQVRIDHATPHMMYGHILGPDGQPLPEQPRFNPEAAAVGGALPML” as the sequence, how does the protein production read?
**A.** failed

**Q.** For “MSQRKYFGTDGVRGEVGGPVINAAFALRLGYAAGRVLAREHREHASGRGRNRPQVVIGKDTRISGYMLESALEAGLSAAGIDVLLAGPVPTPAVAYLTRTLRLAAGIVISASHNPYQDNGIKFFSAHGMKLPDDIEAAIEQALDEPLGCVGSEELGRARRMADAQGRYIEFCKSTFPHDLDLNGLKLVVDAAHGAAYNVAPHVFRELGAEVHAIGVSPDGFNINKGVGALHPESLAEEVRARGADLGIALDGDADRLQMVDGTGRIYNGDELLYAIVRERMQRGPVAGVVGTLMTNYGLERQLQQIGVGFERANVGDRYVLEQMQARGWLYGGESSGHLLCLDCHTTGDGTIAALQVLTALRRADATLAEWVADLRMYPQKMINVPLAPGLDWKTHDGLARARGAVEAELAGRGRVLIRASGTEPKLRLMVEAEDEALAQASAQKLADSLGA”, which protein production is on record?
**A.** failed

**Q.** For “MIIGCSASQKLAASVADLLDEPLCPVETRKFPDGERYIRVKEEVEGEVTVVQSTGYPQDENLMELLFMIENLKDLGADYVRAAIPYFGYGRQERRFKSGEAVSAKIVAHLLEAAGADEIVTVNLHENCLSEFFRVPVRELSAMPLIAEHISFLDDPVIIAPDKGALGHAREVSDILGCECDYMEKVRISPEVVETRVSDLDVEGKDAVVVDDIISTGGTIVNAAGILGKCGASSITVCCVHPVLVEDALLKIFSAGVERVIATDTLKSDVSEISVAPLIADVMKD”, which protein production is on record?
**A.** failed

**Q.** Which protein production does the source give for “MGRNDPLAAYNAKRDFARTAEPAGKRKSSATGNLFIVQKHDATRLHWDFRMEVDGVLKSWAVTRGPSPDPDDKRLAVQTEDHPLEYARFEGIIPEGEYGGGTVMLWDKGTWEPVEGKSAKDLEKGHLHFRLEGERMKGEWLLVRLKRRGNEKRDNWLLRKLDDAYAGQGDQLVERGLTSVLTGRTMAEIASDKAGSHSLKGKRGKAFASVMEEAGTHNRKVGKARGKAPSRARRNAPLPAFQPVQLATLVDTVPDGRQWLYEIKFDGYRALVAVRGTEVRVFTRSGLDWTEKFAPLARHLAGLKLPSCLIDGEIVAADADGNPDFSRLQAVLKRGHGEQGEGDALSFHAFDLLELEGEDLKPLPNVERKQKLAALLAGVSPPIHVADHIIGGGEKLLGALCGAGQEGIICKRADAAYAGKRTQNWLKVKCVARQEFIVVGFTRSSARRRPFASLLLAQREGKALVYKGKVGTGFDEDLLQDLATRFEALKVDEGPLDVPITEARGVTWLKPELVAEIAFAEFTAEGRVRHASFVGLREDKKAADVVPERPAPLVVQPEIVPISNRERVIFPESGQTKGDLADYYAAMAPAMLPFIANRPVSLVRCPQGRARHCFFQKHDSGSFGEHVHHVPIREKDGNEEEYLFVSDAAGILSCVQMGTIEFHGWCSLASDVEAPERMVIDLDPDEGLDFNDVKRAARDIRDRLSDLGLVSFAMLSGGKGVHVVVPLRPDHTWEAHASFAERFARALALAEPDRYVATMSKARRKGRIFIDWLRNRRGSTAVMPYSARARANAPVAVPIAWEELDDFANAHPFCIGDTAGLLKRSEGKSLRGWGMAQQSLPDV” here?
**A.** failed

**Q.** With “MPNRKASRNAYYFFVQEKIPELRRRGLPVARVADAIPYCSSDWALLREEEKEKYAEMAREWRAAQGKDPGPSEKQKPVFT” as the sequence, how does the protein production read?
**A.** not failed

**Q.** Which protein production does the source give for “MELKDYYAILGVQPTDDLKTIKTAYRRLARKYHPDVSKENDAEAKFKDLAEAWEVLKDEQRRAEYDQLWQHRNDPGFGRQRQTHEQSYSQQDFDDIFSSMFGQQAHQRRRQHAARGHDLEIEVAVFLEETLAEQTRTISYNLPVYNVFGMIESETPKTLNVKIPAGVVDGQRIRLKGQGTPGENGGPNGDLWLVIHIAPHPLFDIVGHNLEIVLPLAPWEAALGAKVTVPTLKESILLTVPPGSQAGQRLRIKGKGLVSKTHTGDLFAVIKIVMPTKPDEKARELWQQLAAAEASFDPRKTWGKA” here?
**A.** not failed

**Q.** With “MEHIEIRVSATGSMSSFHALCSFHQWPINVACSCWLSHCYRIYSLYPPQLVSCSDRLSTSGNTNAGAEFVTE” as the sequence, how does the protein production read?
**A.** failed

**Q.** For “MDYKKTNAPSNTVTRDMMDLCADTGNIYETVAIIGKRANQISVEMKNDLSKKLQEFASYNDNLEEVFENREQIEISRYYEKLPKPTLIAAQEYEEGKVYFRNPAKEKEKLQ”, which protein production is on record?
**A.** not failed

**Q.** With “MADQPESPSRPRGGLRRLLPWSGADTARTATTVHTVINGERGGQGLAAHQLVPAKAKSGAHDPAAATALLIRLFSHAAHPEALLLAFAEGITSLHGELGDMGVRLSAAYAAGDWPGYGRALRQLIDKYIRTIDIGDSLAEGRTEAEQLRDLLRHALGNALATLLQRSPELAEEAQTLASALRHWRPGHELLTLEQRLRELSHQIGLRAEDASEQQNLLLGLFDLLLENVGELLDDRSWLQGQISVVRQLISGPLDVSSIEQARGTLREVIYKQGLLKQGIAESKTAMREMMVSFVDRLDGMATSTGEYHDRVAGYSQAIGEARGIPDLNRLLQDLLQDTAGVQAQALAARDELLSARRQVEDCEQRIASLEQELKDVAGLVREDQLTGALNRRGFEELFQREAVRTQRSGQPLCVAMLDLDDFRRLNETHGHAGGDAALRHTVDVAKAVLRTTDAIARFGGEEFVLLLPDSTIFEASAAVIRLQRALSQRSLLHDDVRVFISFSAGVALRGTDETQDDVIRRADRAMYDAKSAGKNRVINAD” as the sequence, how does the protein production read?
**A.** failed
